# Data as given in patent US11325966.
# B1: 10-1074 (antibody, V domains shown)
# VH: QVQLQESGPGLVKPSETLSVTCSVSGDSMNNYYWTWIRQSPGKGLEWIGYISDRESATYNPSLNSRVVISRDTSKNQLSLKLNSVTPADTAVYYCATARRGQRIYGVVSFGEFFYYYSMDVWGKGTTVTVSS
# VL: SYVRPLSVALGETARISCGRQALGSRAVQWYQHRPGQAPILLIYNNQDRPSGIPERFSGTPDINFGTRATLTISGVEAGDEADYYCHMWDSRSGFSWSFGGATRLTVL
# Columns and labels:
# Experiment in all cases: cell-based or functional assay
# [1] = target: BG505 (T332N) N339A (HIV-1)
# [2] = target: HIV-1 envelope (Env) of pseudovirus 191821_E6_1 (HIV-1)
# [3] = target: HIV-1 envelope (Env) of pseudovirus 231965.c01 (HIV-1)
# [4] = target: HIV-1 envelope (Env) of pseudovirus 235-47 (HIV-1)
# [5] = target: HIV-1 envelope (Env) of pseudovirus 3365.v2.c2 (HIV-1)
# [6] = target: HIV-1 envelope (Env) of pseudovirus A07412M1.vrc12 (HIV-1)
# [7] = target: HIV-1 envelope (Env) of pseudovirus AC10.0.29 (HIV-1)
# [8] = target: HIV-1 envelope (Env) of pseudovirus BJOX009000.02.4 (HIV-1)
# [9] = target: HIV-1 envelope (Env) of pseudovirus C3347.c11 (HIV-1)
# [10] = target: HIV-1 envelope (Env) of pseudovirus CNE19 (HIV-1)
# [11] = target: HIV-1 envelope (Env) of pseudovirus Ce1176_A3 (HIV-1)
# [12] = target: HIV-1 envelope (Env) of pseudovirus Du172.17 (HIV-1)
# [13] = target: HIV-1 envelope (Env) of pseudovirus MS208.A1 (HIV-1)
# [14] = target: HIV-1 envelope (Env) of pseudovirus R2184.c04 (HIV-1)
# [15] = target: HIV-1 envelope (Env) of pseudovirus SC05_8C11_2344 (HIV-1)
# [16] = target: HIV-1 envelope (Env) of pseudovirus T250-4 (HIV-1)
# [17] = target: HIV-1 envelope (Env) of pseudovirus TRO.11 (HIV-1)
# [18] = target: HIV-1 envelope (Env) of pseudovirus X1193_c1 (HIV-1)
# [19] = target: HIV-1 envelope (Env) of pseudovirus YU2_N332K (HIV-1) (UniProt P35961)
# [20] = target: HIV-1 envelope (Env) of pseudovirus ZM214M.PL15 (HIV-1)
# [21] = target: HIV-1 envelope (Env) of pseudovirus ZM233M.PB6 (HIV-1)
# [22] = target: HIV-1 Env of pseudovirus 7030102001E5 (Rev-) (HIV-1)
# [23] = target: HIV-1 Env of pseudovirus 0815.v3.c3 (HIV-1)
# [24] = target: HIV-1 Env of pseudovirus 211-9 (HIV-1)
# [25] = target: HIV-1 Env of pseudovirus 231966.c02 (HIV-1)
# [26] = target: HIV-1 Env of pseudovirus 249M B10 (HIV-1)
# [27] = target: HIV-1 Env of pseudovirus 3103.v3.c10 (HIV-1)
# [28] = target: HIV-1 Env of pseudovirus 3817.v2.c59 (HIV-1)
# [29] = target: HIV-1 Env of pseudovirus 6041.v3.c23 (HIV-1)
# [30] = target: HIV-1 Env of pseudovirus 6240_08_TA5_4622 (HIV-1)
# [31] = target: HIV-1 Env of pseudovirus 928-28 (HIV-1)
# [32] = target: HIV-1 Env of pseudovirus C4118.c09 (HIV-1)
# [33] = target: HIV-1 Env of pseudovirus CAP210.2.00.E8 (HIV-1)
# [34] = target: HIV-1 Env of pseudovirus CNE30 (HIV-1)
# [35] = target: HIV-1 Env of pseudovirus Ce1172_H1 (HIV-1)
# [36] = target: HIV-1 Env of pseudovirus Du172.17 (HIV-1)
# [37] = target: HIV-1 Env of pseudovirus Q461.e2 (HIV-1)
# [38] = target: HIV-1 Env of pseudovirus T257-31 (HIV-1)
# [39] = target: HIV-1 Env of pseudovirus TRO.11 (HIV-1)
molecule,measurement,setting,value
354BG8 (antibody),IC50 in TZM-bl assay,[1],7 ng/mL
BG1 (antibody),IC50 in TZM-bl assay,[2],> 30 µg/mL
same,IC80 in TZM-bl assay,[2],> 30 µg/mL
same,IC50 in TZM-bl assay,[3],> 30 µg/mL
same,IC80 in TZM-bl assay,[3],> 30 µg/mL
same,IC50 in TZM-bl assay,[4],1.27 µg/mL
same,IC80 in TZM-bl assay,[4],4.38 µg/mL
same,IC50 in TZM-bl assay,[5],1.16 µg/mL
same,IC80 in TZM-bl assay,[5],4.27 µg/mL
same,IC50 in TZM-bl assay,[6],> 30 µg/mL
same,IC80 in TZM-bl assay,[6],> 30 µg/mL
same,IC50 in TZM-bl assay,[7],0.012 µg/mL
same,IC80 in TZM-bl assay,[7],0.043 µg/mL
same,IC50 in TZM-bl assay,[8],> 30 µg/mL
same,IC80 in TZM-bl assay,[8],> 30 µg/mL
same,IC50 in TZM-bl assay,[9],> 30 µg/mL
same,IC80 in TZM-bl assay,[9],> 30 µg/mL
same,IC50 in TZM-bl assay,[10],1.27 µg/mL
same,IC80 in TZM-bl assay,[10],10.9 µg/mL
same,IC50 in TZM-bl assay,[11],0.031 µg/mL
same,IC80 in TZM-bl assay,[11],0.165 µg/mL
same,IC50 in TZM-bl assay,[12],> 30 µg/mL
same,IC80 in TZM-bl assay,[12],> 30 µg/mL
same,IC50 in TZM-bl assay,[13],1.48 µg/mL
same,IC80 in TZM-bl assay,[13],6.54 µg/mL
same,IC50 in TZM-bl assay,[14],> 30 µg/mL
same,IC80 in TZM-bl assay,[14],> 30 µg/mL
same,IC50 in TZM-bl assay,[15],> 30 µg/mL
same,IC80 in TZM-bl assay,[15],> 30 µg/mL
same,IC50 in TZM-bl assay,[16],3.92 µg/mL
same,IC80 in TZM-bl assay,[16],> 30 µg/mL
same,IC50 in TZM-bl assay,[17],> 30 µg/mL
same,IC80 in TZM-bl assay,[17],> 30 µg/mL
same,IC50 in TZM-bl assay,[18],0.138 µg/mL
same,IC80 in TZM-bl assay,[18],0.463 µg/mL
same,IC50 in TZM-bl assay,[19],19.4 µg/mL
same,IC80 in TZM-bl assay,[19],> 30 µg/mL
same,IC50 in TZM-bl assay,[20],> 30 µg/mL
same,IC80 in TZM-bl assay,[20],> 30 µg/mL
same,IC50 in TZM-bl assay,[21],> 30 µg/mL
same,IC80 in TZM-bl assay,[21],> 30 µg/mL
BG18 IgG (354BG18) (antibody),IC50 in TZM-bl assay,[22],2 ng/mL
same,IC80 in TZM-bl assay,[22],8 ng/mL
B1,IC50 in TZM-bl assay,[23],0.043 µg/mL
same,IC80 in TZM-bl assay,[23],0.197 µg/mL
same,IC50 in TZM-bl assay,[24],0.065 µg/mL
same,IC80 in TZM-bl assay,[24],0.403 µg/mL
same,IC50 in TZM-bl assay,[25],> 10 µg/mL
same,IC80 in TZM-bl assay,[25],> 10 µg/mL
same,IC50 in TZM-bl assay,[26],> 10 µg/mL
same,IC80 in TZM-bl assay,[26],> 10 µg/mL
same,IC50 in TZM-bl assay,[27],0.024 µg/mL
same,IC80 in TZM-bl assay,[27],0.061 µg/mL
same,IC50 in TZM-bl assay,[28],0.706 µg/mL
same,IC80 in TZM-bl assay,[28],4.49 µg/mL
same,IC50 in TZM-bl assay,[29],> 10 µg/mL
same,IC80 in TZM-bl assay,[29],> 10 µg/mL
same,IC50 in TZM-bl assay,[30],0.038 µg/mL
same,IC80 in TZM-bl assay,[30],0.131 µg/mL
same,IC50 in TZM-bl assay,[31],0.616 µg/mL
same,IC80 in TZM-bl assay,[31],2.4 µg/mL
same,IC50 in TZM-bl assay,[32],> 10 µg/mL
same,IC80 in TZM-bl assay,[32],> 10 µg/mL
same,IC50 in TZM-bl assay,[33],> 10 µg/mL
same,IC80 in TZM-bl assay,[33],> 10 µg/mL
same,IC50 in TZM-bl assay,[34],0.261 µg/mL
same,IC80 in TZM-bl assay,[34],0.678 µg/mL
same,IC50 in TZM-bl assay,[35],0.019 µg/mL
same,IC80 in TZM-bl assay,[35],0.083 µg/mL
same,IC50 in TZM-bl assay,[36],0.049 µg/mL
same,IC80 in TZM-bl assay,[36],0.194 µg/mL
same,IC50 in TZM-bl assay,[37],> 10 µg/mL
same,IC80 in TZM-bl assay,[37],> 10 µg/mL
same,IC50 in TZM-bl assay,[38],> 10 µg/mL
same,IC80 in TZM-bl assay,[38],> 10 µg/mL
same,IC50 in TZM-bl assay,[39],0.011 µg/mL
same,IC80 in TZM-bl assay,[39],0.039 µg/mL
